{"source": "patent US11541126B1", "about": "“Anti-ASGR1 antibody TLR8 agonist comprising conjugates and uses thereof” (Silverback Therapeutics, Inc., priority 2020, dated 2023)", "molecules": {"B1": {"name": "ASGR1-TLR8-S: \"The surrogate (i.e., murinized ASGR1 mAb-C (having 4F3 CDRs)-IgG2a conjugated to a TLR7 agonist Compound 4.1)\" (conjugate)", "heavy": "EVKLVESGGGLVKPGGSLKLSCAASGFTFSSYAMSWVRQTPEKRLEWVSAISGSGGSTYYADSVKGRFTISRDNAKNTLYLQMSSLRSEDTAMYYCAKDFSSRRWYLEYWGQGTTLTVSSAKTTAPSVYPLAPVCGDTTGSSVTLGCLVKGYFPEPVTLTWNSGSLSSGVHTFPAVLQSDLYTLSSSVTVTSSTWPSQSITCNVAHPASSTKVDKKIEPRGPTIKPCPPCKCPAPNLLGGPSVFIFPPKIKDVLMISLSPIVTCVVVDVSEDDPDVQISWFVNNVEVHTAQTQTHREDYNSTLRVVSALPIQHQDWMSGKEFKCKVNNKDLPAPIERTISKPKGSVRAPQVYVLPPPEEEMTKKQVTLTCMVTDFMPEDIYVEWTNNGKTELNYKNTEPVLDSDGSYFMYSKLRVEKKNWVERNSYSCSVVHEGLHNHHTTKSFSRTPGK", "light": "QAVLTQEPALSVSLGQTVTLTCQGDSLRSYYASWYQQKPGQAPVLVIYGKNNRPSGVPARFSGSLIGDKAALTITGAQTEDEAIYYCNSLERIGYLSYVFGGGTKVTVLRADAAPTVSIFPPSSEQLTSGGASVVCFLNNFYPKDINVKWKIDGSERQNGVLNSWTDQDSKDSTYSMSSTLTLTKDEYERHNSYTCEATHKTSTSPIVKSFNRNEC", "modifications": "conjugated to TLR7 agonist Compound 4.1; Synthetic sequence mzASGR1 mAb-C Heavy Chain (VH-IgG2a); Synthetic sequence mzASGR1 mAb-C Light Chain (VL-kappa)"}, "B2": {"name": "ASGR1-TLR8: This ASGR1-TLR8 contains a mouse-human chimeric anti-ASGR1 antibody (conjugate)", "heavy": "B1 heavy", "light": "B1 light", "modifications": "TLR8 agonist conjugated; Synthetic sequence mzASGR1 mAb-C Heavy Chain (VH-IgG2a); Synthetic sequence mzASGR1 mAb-C Light Chain (VL-kappa)", "notes": "This ASGR1-TLR8 contains a mouse-human chimeric anti-ASGR1 antibody"}, "B3": {"name": "ASGR1-S: a mouse conjugate surrogate for an ASGR1-TLR8 conjugate intended for therapeutic use in a human (conjugate)", "heavy": "B1 heavy", "light": "B1 light", "modifications": "conjugated to TLR agonist Compound 4.1; Synthetic sequence mzASGR1 mAb-C Heavy Chain (VH-IgG2a); Synthetic sequence mzASGR1 mAb-C Light Chain (VL-kappa)", "notes": "a mouse conjugate surrogate for an ASGR1-TLR8 conjugate intended for therapeutic use in a human"}}, "key": {"AAV-HBV transduced mice": {"tested_on": "AAV-HBV transduced mice", "assay": "Viral DNA and HBsAg antigen in mouse AAV-HBV model (replicated experiment)", "assay_type": "in vivo"}, "HBV": {"tested_on": "HBV", "assay": "AAV-HBV mouse model for chronic HBV infection: viral DNA, HBsAg, anti-HBsAg seroconversion", "assay_type": "in vivo", "method": "C57BL/6 mice were transduced with AAV8-HBV1.2 vector and sorted into treatment groups (n=10). Animals received 0.5 mg/dose of ASGR1-TLR8-S, 0.5 mg of unconjugated mASGR1 mAb or vehicle, sc QWx5 beginning d0 (black arrows). In FIG. 8A, dotted line is LLOQ for HBsAg ELISA. In FIG. 8B, average plasma anti-HBsAg IgG was determined by ELISA. p-values determined by T-test by comparison to vehicle group.\nAn in vivo mouse model for chronic HBV to examine the therapeutic effect of ASGR1-TLR8 agonists of the instant disclosure. […] Like TLR8 in humans, and in contrast to TLR7 in humans, TLR7 in mice is expressed in myeloid cells, like macrophages. Thus, for in vivo murine experiments, an anti-ASGR1-TLR7 agonist conjugate was generated as a surrogate for human anti-ASGR1-TLR8 agonist conjugates. In addition, the anti-human ASGR1 antibody 4F3 was “murinized” so as to bind to mouse ASGR1.\nOn day 0 animals were sorted into viral load-balanced treatment groups of 10. […] The experiment was ended on day 35. Weekly plasma samples were assessed for viral DNA and antigens, including samples from post-transduction (i.e., infection) but pre-treatment. HBV DNA in mouse plasma was isolated with QIAAMP® 96 DNA Blood Kit following the manual and quantified by qPCR. The standard curve DNA of 10^7 copies/μL was prepared by 60-fold dilution of 5 ng/μL pAAV2-HBV1.3 plasmid DNA, then serially diluted 10-fold with AE buffer from 10^7 to 10 copies/μL. A 2 μl volume from samples was added to standard qPCR assay mixtuRes. The PCR mixture and samples or plasmid DNA standard were added to 384-well optical reaction plates. PCR was run at 95° C. for 10 min for 1 cycle, at 95° C. for 15 sec, 60° C. for 1 min for 40 cycles. HBsAg plasma levels were determined by ELISA assay using HBsAg ELISA kit (Autobio) according to the manual."}, "[1]": {"method": "Throughout the course of this experiment, weekly body weights were obtained for each animal. In addition, the animals were monitored for an increase in ALT enzyme activity as a sign of liver damage. Plasma samples from d0, d7, d21, and d35 were assayed for levels of ALT with ALT Activity Assay Kit (Sigma Chemical Co., MAK052)."}, "CD19^pos B cells": {"tested_on": "CD19^pos B cells", "assay": "CD86 on CD19pos B cells after PBMC co-culture (flow cytometry)", "assay_type": "cell-based, human", "conditions": "co-culture of PBMC with ASGR1^pos cells, 10 nM, 24 and 48 hours", "method": "FIG. 9 is a pair of graphs showing that ASGR1-TLR8 increases B cell expression of CD86, an activation marker indicative of increased antigen presentation and IgG secretion. CD86 levels on CD19^pos B cells were determined by flow cytometry after co-culture of PBMC with ASGR1^pos or ASGR1^neg cells in presence of test articles at 10 nM at 24 hours (left) and 48 hours (right). This ASGR1-TLR8 contains a mouse-human chimeric anti-ASGR1 antibody.\nASGR1-TLR8 conjugate activation increases B-cell expression of CD86, an activation marker indicating increased antigen presentation and IgG secretion. Abbreviations: monoclonal antibody (mAb), positive (pos), negative (neg), mean fluorescence intensity (MFI), hours (hrs). This ASGR1-TLR8 conjugate contains a humanized anti-ASGR1 antibody and has a DAR4."}, "[2]": {"tested_on": "NK cells, CD8+ T cells and CD4+ T cells in human PBMC and ASGR1pos target cell co-culture", "assay": "IFNγ on NK cells, CD8+ and CD4+ T cells in human PBMC and ASGR1pos target cell co-culture (FACS)", "assay_type": "cell-based", "conditions": "10 nM, 24 or 48 hours; FIG. 10", "method": "(§1) Normal human donor PBMCs were co-cultured with cell lines expressing ASGR1 (ASGR1^pos) or not (ASGR1^neg) in the presence of 10 nM of either anti-ASGR1-TLR8 conjugate, the unconjugated antibody, an anti-digoxigenin-TLR8 conjugate or no treatment. After 24 or 48 hours of incubation, cells were harvested and processed for FACS analysis (BD FACSCelesta™ Flow Cytometer) by standard procedures for washing and incubation with immune cell lineage antibodies, that included antibodies to detect levels of cell activation molecules, including anti-IFNγ antibody."}, "[3]": {"tested_on": "B cells in human PBMC and ASGR1pos target cell co-culture", "assay": "CD86 on CD19pos B cells in human PBMC and ASGR1pos target cell co-culture (FACS)", "assay_type": "cell-based", "conditions": "10 nM, 24 or 48 hours; FIG. 9 and FIG. 11", "method": "as §1, with “included anti-CD19 antibody to identify B cells, and” for “included”, “anti-CD86” for “anti-IFNγ”"}, "[4]": {"conditions": "defined from liver payload PK after SC doses", "from_the_text": "Subcutaneous (SC) doses assessed are similar to those in FIGS. 6A and 6B. Liver payload PK was used as measure of conjugate uptake.\nSC doses assessed are similar to those in FIGS. 6A and 6B. Liver payload PK was used as measure of conjugate uptake."}, "[5]": {"conditions": "0.5 mg subcutaneous once a week for 5 weeks"}}, "note": "Entries after “also recorded” stand apart in the source; their conditions may differ.", "data": [{"molecule": "B1", "values": [{"measurement": "HBsAg antigen", "setting": "AAV-HBV transduced mice; FIG. 8A", "result": "significantly lowered"}, {"measurement": "viral DNA", "setting": "AAV-HBV transduced mice; data not shown", "result": "significantly lowered"}, {"measurement": "HBsAg antigen in plasma", "setting": "HBV; [5]", "result": "significantly lowered; also recorded: reduces"}, {"measurement": "Viral DNA in plasma", "setting": "HBV; [5]", "result": "significantly lowered"}, {"measurement": "Anti-HBsAg seroconversion", "setting": "HBV; 0.5 mg/dose sc QWx5", "result": "drives seroconversion"}, {"measurement": "Body weight", "setting": "[1]; [5]", "result": "gained weight like control animals"}, {"measurement": "ALT enzyme activity", "setting": "[1]; plasma d0, d7, d21, d35", "result": "no increase"}]}, {"molecule": "B2", "values": [{"measurement": "B cell expression of CD86", "setting": "CD19^pos B cells", "result": "increases"}, {"measurement": "levels of IFNγ on NK cells, CD8+ T cells and CD4+ T cells (MFI)", "setting": "[2]", "result": "drives an IFNγ response"}, {"measurement": "levels of CD86 on CD19pos cells (MFI)", "setting": "[3]", "result": "B cells were activated"}]}, {"molecule": "B3", "values": [{"measurement": "Seroconversion in the AAV-HBV model", "setting": "HBV; at 5 mg/kg and 10 mg/kg", "result": "observed in some animals"}, {"measurement": "Target payload liver concentration", "setting": "[4]", "result": "approximately 100 ng/g"}]}]}
